Measured values from US20190247432A1 (published 2019).

Biological target: T1, NY-ESO-1 (the LAGE-1S transcript variant shares the same epitope) peptide on HLA-A*02:01 (human)
T1 peptide: SLLMWITQC
Assay: multimer staining

binding result: recognises
B1: 8F NY-ESO-1 TCR (TCR, V domains shown)
Valpha: EEDPQALSIQEGENATMNCSYKTSINNLQWYRQNSGRGLVHLILIRSNEREKHSGRLRVTLDTSKKSSSLLITASRAADTASYFCATDGAGKSTFGDGTTLTVKP
Vbeta: VIQSPRHEVTEMGQEVTLRCKPISGHDYLFWYRQTMMRGLELLIYFNNNVPIDDSGMPEDRFSAKMPNASFSTLKIQPSEPRDSAVYFCASTIGAQPQHFGDGTRLSIL
